Measured values published in patent US6972319B1, “Pituitary adenylate cyclase activating peptide (PACAP)receptor 3 (R3) agonists and their pharmacological methods of use” (priority 1999, dated 2005).
No end group written: not given here.

These binders were tested against T1, PACAP-R3 (human, UniProt P41587 24-438) (assay: cell-based or functional assay).
T1 sequence (looked up): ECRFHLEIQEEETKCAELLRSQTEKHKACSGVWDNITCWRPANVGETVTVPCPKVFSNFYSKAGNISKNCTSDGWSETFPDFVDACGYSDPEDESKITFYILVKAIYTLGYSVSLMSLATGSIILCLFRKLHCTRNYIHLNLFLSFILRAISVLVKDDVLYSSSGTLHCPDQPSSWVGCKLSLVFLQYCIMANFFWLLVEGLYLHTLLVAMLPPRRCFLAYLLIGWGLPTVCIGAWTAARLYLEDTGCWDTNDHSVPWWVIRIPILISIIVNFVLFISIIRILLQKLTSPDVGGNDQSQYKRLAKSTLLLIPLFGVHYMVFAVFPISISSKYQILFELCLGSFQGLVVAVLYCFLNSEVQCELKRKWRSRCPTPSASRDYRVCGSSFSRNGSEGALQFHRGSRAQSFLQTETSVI

In order of falling “R3 EC50” value:
1. HSDAVFTDNYTRLRKQMAPKKYLNSIKNKR [R3P108]  300 nM
2. HSDAVFTDNYTRLRKQMANKKYLNSIKNKR [R3P107]  200 nM
3. HSDAVFTDNYTRLRKQMAVKKYLNDLKKGGT [R3P14]  17 nM
4. HSDAVFTDNYTRLRKQMAQKKYLNSIKNKR [R3P109]  10 nM
5. HSDAVFTDNYTRLRKQMAYKKYLNSIKNKR [R3P115]  6 nM
6. HSDAVFTDNYTRLRKQLAAKKYLNDIKK-NH2 [R3P13]  5 nM
7. HSDAVFTDNYTKLRKQLAAKKYLNDILNGGT [R3P11]  3 nM
8. HSDAVFTDNYTRLRKQMAAKKYLNSIKNNR [R3P144]  3 nM
9. HSDAVFTDNYTRLRKQMASKKYLNSIKNKR [R3P111]  3 nM
10. HSDAVFTDNYTRLRKQMAAKKYLNSINNKR [R3P125]  2 nM
11. HSDAVFTDNYTRLRKQMAWKKYLNSIKNKR [R3P114]  2 nM
12. HSDAVFTDNYTRLRKQMAAKKYLNSISNKR [R3P129]  1 nM
13. HSDAVFTDNYTRLRKQMAAKKYLNSIPNKR [R3P126]  1 nM
14. HSDAVFTDNYTRLRKQMAAKKYLNSIKNKE [R3P156]  1 nM
15. HSDAVFTDNYTRLRKQMAAKKYLNSIGNKR [R3P121]  1 nM
16. HSDAVFTDNYTRLRKQMAAKKYLNSITNKR [R3P130]  1 nM
17. HSDAVFTDNYTRLRKQMAAKKYLNSIANKR [R3P116]  1 nM
18. HSDAVFTDNYTRLRKQMAAKKYLNSIKNVR [R3P150]  0.8 nM
19. HSDAVFTDNYTRLRKQLAAKKYLNDIKKGGT [R3P12]  0.5 nM
20. HSDAVFTDNYTRLRKQMAAKKYLNSIQNKR [R3P127]  0.5 nM
21. HSDAVFTDNYTRLRKQMAAKKYLNSIENKR [R3P119]  0.5 nM
22. HSDAVFTDNYTRLRKQMARKKYLNSIKNKR [R3P110]  0.5 nM
23. HSDAVFTDNYTRLRKQMAAKKYLNSIKNTR [R3P149]  0.5 nM
24. HSDAVFTDNYTRLRKQMAAKKYLNSIKNPR [R3P145]  0.5 nM
25. HSDAVFTDNYTRLRKQMAAKKYLNSIDNKR [R3P118]  0.5 nM
26. HSDAVFTDNYTRLRKQMAAKKYLNSIKNKD [R3P155]  0.4 nM
27. HSDAVFTDNYTRLRKQMAAKKYLNSIKNAR [R3P134]  0.4 nM
28. HSDAVFTDNYTRLRKQMAAKKYLNSIKNGR [R3P139]  0.4 nM
29. HSDAVFTDNYTRLRKQMAAKKYLNSIKNHR [R3P140]  0.3 nM
30. HSDAVFTDNYTRLRKQMAAKKYLNSIKNER [R3P137]  0.3 nM
31. HSDAVFTDNYTRLRKQMAAKKYLNSIKNQR [R3P146]  0.3 nM
32. HSDAVFTDNYTRLRKQMAAKKYLNSIVNKR [R3P131]  0.3 nM
33. HSDAVFTDNYTRLRKQMAAKKYLNSIKNSR [R3P148]  0.3 nM
34. HSDAVFTDNYTRLRKQMAVKKYLNSIKNKR [R3P113]  0.3 nM
35. HSDAVFTDNYTRLRKQMAAKKYLNSIKNDR [R3P136]  0.3 nM
36. HSDAVFTDNYTRLRKQMAAKKYLNSIRNKR [R3P128]  0.3 nM
37. HSDAVFTDNYTRLRKQMAAKKYLNSIKNMR [R3P143]  0.2 nM
38. HSDAVFTDNYTRLRKQMAAKKYLNSIKNLR [R3P142]  0.2 nM
39. HSDAVFTDNYTRLRKQMAAKKYLNSIMNKR [R3P124]  0.2 nM
40. HSDAVFTDNYTRLRKQMAAKKYLNSIKNRR [R3P147]  0.2 nM
41. HSDAVFTDNYTRLRKQMAAKKYLNSIKNIR [R3P141]  0.2 nM
42. HSDAVFTDNYTRLRKQMAAKKYLNSIFNKR [R3P120]  0.2 nM
43. HSDAVFTDNYTRLRKQMAAKKYLNSIWNKR [R3P132]  0.2 nM
44. HSDAVFTDNYTRLRKQMAAKKYLNSIKNKA [R3P153]  0.2 nM
45. HSDAVFTDNYTRLRKQMAAKKYLNSIHNKR [R3P122]  0.2 nM

Compared with HSDAVFTDNYTKLRKQLAAKKYLNDILNGGT [R3P11], HSDAVFTDNYTRLRKQLAAKKYLNDIKKGGT [R3P12] is higher in “R3 Selectivity” value: 3 for the first, over 200 for the second.

HSDAVFTDNYTRLRKQMAAKKYLNSIKNHR [R3P140] and HSDAVFTDNYTRLRKQMAAKKYLNSISNKR [R3P129] are the same in “R3 Selectivity” value: 50 for the first, 50 for the second.

Compared with HSDAVFTDNYTRLRKQMAAKKYLNSIQNKR [R3P127], HSDAVFTDNYTRLRKQMAAKKYLNSIPNKR [R3P126] is lower in “R3 Selectivity” value: 600 for the first, 200 for the second.

HSDAVFTDNYTRLRKQMAAKKYLNSIKNER [R3P137] and HSDAVFTDNYTRLRKQMAAKKYLNSIKNKD [R3P155] are the same in “R3 Selectivity” value: 100 for the first, 100 for the second.

Going from HSDAVFTDNYTRLRKQMAPKKYLNSIKNKR [R3P108] to HSDAVFTDNYTRLRKQMAAKKYLNSIKNMR [R3P143], the “R3 Selectivity” value rises from 3 to 30.

Going from HSDAVFTDNYTRLRKQMAAKKYLNSIKNNR [R3P144] to HSDAVFTDNYTRLRKQMAAKKYLNSIENKR [R3P119], the “R3 Selectivity” value falls from 100 to 30.

First: HSDAVFTDNYTRLRKQMAAKKYLNSINNKR [R3P125]
Second: HSDAVFTDNYTRLRKQMAAKKYLNSIKNKE [R3P156]
The “R3 Selectivity” value of the first is lower: 30 for the first, 100 for the second.

First: HSDAVFTDNYTRLRKQMAAKKYLNSIKNLR [R3P142]
Second: HSDAVFTDNYTRLRKQMARKKYLNSIKNKR [R3P110]
The “R3 Selectivity” value of the first is lower: 30 for the first, 200 for the second.

HSDAVFTDNYTRLRKQMAAKKYLNSIGNKR [R3P121] and HSDAVFTDNYTRLRKQMAAKKYLNSIKNVR [R3P150] are the same in “R3 Selectivity” value: 50 for the first, 50 for the second.

Going from HSDAVFTDNYTRLRKQMAAKKYLNSIKNTR [R3P149] to HSDAVFTDNYTRLRKQMAAKKYLNSIKNQR [R3P146], the “R3 Selectivity” value rises from 80 to 100.

Compared with HSDAVFTDNYTRLRKQMAAKKYLNSIVNKR [R3P131], HSDAVFTDNYTRLRKQMAAKKYLNSITNKR [R3P130] is lower in “R3 Selectivity” value: 70 for the first, 40 for the second.

First: HSDAVFTDNYTRLRKQMAVKKYLNDLKKGGT [R3P14]
Second: HSDAVFTDNYTRLRKQMAYKKYLNSIKNKR [R3P115]
The “R3 Selectivity” value of the first is lower: 3 for the first, 50 for the second.

Compared with HSDAVFTDNYTRLRKQMASKKYLNSIKNKR [R3P111], HSDAVFTDNYTRLRKQMAAKKYLNSIKNSR [R3P148] is lower in “R3 Selectivity” value: 300 for the first, 100 for the second.

Compared with HSDAVFTDNYTRLRKQMAAKKYLNSIKNGR [R3P139], HSDAVFTDNYTRLRKQMAAKKYLNSIKNRR [R3P147] is higher in “R3 Selectivity” value: 50 for the first, 500 for the second.

Going from HSDAVFTDNYTRLRKQLAAKKYLNDIKK-NH2 [R3P13] to HSDAVFTDNYTRLRKQMAWKKYLNSIKNKR [R3P114], the “R3 Selectivity” value falls from 33 to 10.

First: HSDAVFTDNYTRLRKQMAAKKYLNSIKNIR [R3P141]
Second: HSDAVFTDNYTRLRKQMAAKKYLNSIFNKR [R3P120]
The “R3 Selectivity” value of the first is higher: 100 for the first, 50 for the second.

First: HSDAVFTDNYTRLRKQMAAKKYLNSIANKR [R3P116]
Second: HSDAVFTDNYTRLRKQMAAKKYLNSIWNKR [R3P132]
The “R3 Selectivity” value of the first is lower: 20 for the first, 50 for the second.

Going from HSDAVFTDNYTRLRKQMAAKKYLNSIKNDR [R3P136] to HSDAVFTDNYTRLRKQMAAKKYLNSIKNPR [R3P145], the “R3 Selectivity” value rises from 70 to 100.

Going from HSDAVFTDNYTRLRKQMAQKKYLNSIKNKR [R3P109] to HSDAVFTDNYTRLRKQMAAKKYLNSIKNKA [R3P153], the “R3 Selectivity” value rises from 100 to 200.

Going from HSDAVFTDNYTRLRKQMAAKKYLNSIHNKR [R3P122] to HSDAVFTDNYTRLRKQMAAKKYLNSIRNKR [R3P128], the “R3 Selectivity” value rises from 50 to 200.

With HSDAVFTDNYTRLRKQMAAKKYLNSIDNKR [R3P118] the “R3 Selectivity” value was 30.
